Laboratory results reported in publication PMC8362889.

Molecular target: 2-azido-ATP (2-N3-ATP-biotin-long chain-hydrazone)
Experiment: photoaffinity labeling with 2-azido-ATP
Details: 2.0 μg of full-length AsphyA protein (∼0.16 μM), wild-type labeling at 100 μM set as 100%, read off a plot
[1] = 10 µM 2-azido-ATP, parent: est. 40
[2] = 20 µM 2-azido-ATP, parent: est. 63
[3] = 50 µM 2-azido-ATP, parent: est. 74
[4] = 100 µM 2-azido-ATP, parent: est. 100

Substance	response [1] [%]	response [2] [%]	response [3] [%]	response [4] [%]
Avena sativa phytochrome A, wild type, full-length recombinant protein with C-terminal strep-tag K411E	61	75	92	110
Avena sativa phytochrome A, wild type, full-length recombinant protein with C-terminal strep-tag K411R	91	120	140	150
Avena sativa phytochrome A, wild type, full-length recombinant protein with C-terminal strep-tag T418V	82	120	140	140
